Results reported in US20210246204A1 (Alector, published 2021).

Experiments:
[1] = molecular target: human Siglec-7 on primary human monocyte-derived dendritic cells (human, UniProt Q9Y286 19-467); test: cell-based or functional assay
[2] = molecular target: T1, histidine-tagged human Siglec-7 (NovoProtein) (human, UniProt Q9Y286 19-353); test: BLI, antibody captured
T1 construct: Bought protein; also called recombinant human Siglec-7; recombinant Siglec-7; not shown: histidine tag
Procedure: In this assay, the humanized antibodies were compared directly to S7AB. Briefly, the antibodies were captured on anti-human or anti-mouse IgG Fc Biosensors (Pall ForteBio). Varying concentrations (0-100 nM) of histidine-tagged human Siglec-7 (NovoProtein) were then bound to the captured anti-Siglec-7 surface (200 s association time, 900 s dissociation time). Multi-concentration kinetic analysis was performed using a 1:1 interaction model to extract association and dissociation rate constants (kₐ and kd, respectively) for each antibody. Apparent affinity constants (KD) were calculated from the ratio kd/kₐ.
The affinities of S7AB-H8 and variants S7AB-H8.1 through S7AB-H8.45 for human Siglec-7 were measured by BioLayer Interferometry according to the method described in Example 1 above.

T1 sequence (Q9Y286 19-353 limits assumed): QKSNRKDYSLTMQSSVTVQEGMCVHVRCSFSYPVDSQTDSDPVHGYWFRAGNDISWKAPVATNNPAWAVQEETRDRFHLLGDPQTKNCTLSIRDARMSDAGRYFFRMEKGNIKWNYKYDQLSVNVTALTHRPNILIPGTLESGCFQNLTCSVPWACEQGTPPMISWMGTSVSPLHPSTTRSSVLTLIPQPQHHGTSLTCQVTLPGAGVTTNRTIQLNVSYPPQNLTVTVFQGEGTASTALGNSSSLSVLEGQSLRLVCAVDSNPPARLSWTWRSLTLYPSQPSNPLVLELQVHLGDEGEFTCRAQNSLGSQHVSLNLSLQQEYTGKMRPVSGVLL
human Siglec-7 on primary human monocyte-derived dendritic cells, sequence (Q9Y286 19-467): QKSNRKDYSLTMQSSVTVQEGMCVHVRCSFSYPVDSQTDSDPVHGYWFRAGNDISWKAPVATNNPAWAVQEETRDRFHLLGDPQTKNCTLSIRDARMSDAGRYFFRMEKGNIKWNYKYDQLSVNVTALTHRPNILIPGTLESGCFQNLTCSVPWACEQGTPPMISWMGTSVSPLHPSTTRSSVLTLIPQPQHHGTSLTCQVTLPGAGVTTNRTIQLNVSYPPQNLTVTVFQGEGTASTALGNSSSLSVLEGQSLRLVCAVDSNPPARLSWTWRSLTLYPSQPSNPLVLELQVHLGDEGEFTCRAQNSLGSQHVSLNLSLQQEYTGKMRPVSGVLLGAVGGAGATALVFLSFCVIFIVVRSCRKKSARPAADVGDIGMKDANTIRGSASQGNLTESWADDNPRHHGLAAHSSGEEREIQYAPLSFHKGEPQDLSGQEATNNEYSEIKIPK

| Binder | Fold increase in potency compared to AB-H8 [1] [fold] | Fold increase in potency compared to Chimeric Ab [1] [fold] | Maximal downregulation (% Siglec-7 remaining) [1] [%] | Receptor downregulation, (EC50) (pM) [1] [pM] | Kd [2] [nM] | fold improvement over S7AB-H8 [2] [fold] | koff [2] [s⁻¹] | kon [2] [M⁻¹ s⁻¹] |
| --- | --- | --- | --- | --- | --- | --- | --- | --- |
| S7AB-H8.10 (antibody, V domains shown) VH: QVQLVQSGAEVKKPGASVKVSCKASGYAFTEAWMNWVRQAPGQGLEWIGRIFPGYGHTNYAQKFQGRATLTEDTSTSTAYMELSSLRSEDTAVYYCARDYSDYYFDYWGQGTLVTVSS VL: DIQMTQSPSSLSASVGDRVTITCRGSQDINTYLNWYQQKPGKAPKLLIYYTSRLHSGVPSRFSGSGSGTDYTLTISSLQPEDFATYYCQQGNTKPWTFGQGTKLEIK | 1.7 | 5.2 | 7 | 197 | 1.62 | 0.6 | 8.14e-05 | 50400 |
| S7AB-H8.12 (antibody, V domains shown) VH: QVQLVQSGAEVKKPGASVKVSCKASGYAFTMAWMNWVRQAPGQGLEWIGRIFPGYGHTNYAQKFQGRATLTEDTSTSTAYMELSSLRSEDTAVYYCARDYSDYYFDYWGQGTLVTVSS VL: DIQMTQSPSSLSASVGDRVTITCRGSQDINTYLNWYQQKPGKAPKLLIYYTSRLHSGVPSRFSGSGSGTDYTLTISSLQPEDFATYYCQGGNTLPWTFGQGTKLEIK | 0.01 | 0.04 | 61.3 | 25400 | 46.3 | 0.02 | 0.000155 | 3350 |
| S7AB-H8.13 (antibody, V domains shown) VH: QVQLVQSGAEVKKPGASVKVSCKASGYAFTGYWMNWVRQAPGQGLEWIGRIFPGLGHTNYAQKFQGRATLTEDTSTSTAYMELSSLRSEDTAVYYCARDYSDYYFDYWGQGTLVTVSS VL: DIQMTQSPSSLSASVGDRVTITCRGSQDINTYLNWYQQKPGKAPKLLIYYTSRLHSGVPSRFSGSGSGTDYTLTISSLQPEDFATYYCQGGNTLPWTFGQGTKLEIK | 0.1 | 0.5 | 43.3 | 2270 | 35.7 | 0.03 | 0.000303 | 8500 |
| S7AB-H8.6 (antibody, V domains shown) VH: QVQLVQSGAEVKKPGASVKVSCKASGYAFTETWMNWVRQAPGQGLEWIGRIFPGLGHTNYAQKFQGRATLTEDTSTSTAYMELSSLRSEDTAVYYCARDYSDYYFDYWGQGTLVTVSS VL: DIQMTQSPSSLSASVGDRVTITCRGSQDINTYLNWYQQKPGKAPKLLIYYTSRLHSGVPSRFSGSGSGTDYTLTISSLQPEDFATYYCQQGNTKPWTFGQGTKLEIK | 2.2 | 6.6 | 7.2 | 154 | 2.24 | 0.5 | 5.71e-05 | 25500 |
| S7AB-H8.11 (antibody, V domains shown) VH: QVQLVQSGAEVKKPGASVKVSCKASGYAFTETWMNWVRQAPGQGLEWIGRIFPGLGHTNYAQKFQGRATLTEDTSTSTAYMELSSLRSEDTAVYYCARDYSDYYFDYWGQGTLVTVSS VL: DIQMTQSPSSLSASVGDRVTITCRGSQDINTYLNWYQQKPGKAPKLLIYYTSRLHSGVPSRFSGSGSGTDYTLTISSLQPEDFATYYCQGGNTLPWTFGQGTKLEIK | 0.05 | 0.1 | 74.7 | 7140 | 124 | 0.01 | 0.000388 | 3140 |

The next binders have a lower Kd [2] than those just listed; values first:

| Fold increase in potency compared to AB-H8 [1] [fold] | Fold increase in potency compared to Chimeric Ab [1] [fold] | Maximal downregulation (% Siglec-7 remaining) [1] [%] | Receptor downregulation, (EC50) (pM) [1] [pM] | Kd [2] [nM] | fold improvement over S7AB-H8 [2] [fold] | koff [2] [s⁻¹] | kon [2] [M⁻¹ s⁻¹] | Binder |
| --- | --- | --- | --- | --- | --- | --- | --- | --- |
| 2.9 | 8.7 | 10.9 | 117 | 0.574 | 1.8 | 7.05e-05 | 123000 | S7AB-H8.1 (antibody, V domains shown) VH: QVQLVQSGAEVKKPGASVKVSCKASGYAFTETWMNWVRQAPGQGLEWIGRIFPGLGHTNYAQKFQGRATLTEDTSTSTAYMELSSLRSEDTAVYYCARDYSDYYFDYWGQGTLVTVSS VL: DIQMTQSPSSLSASVGDRVTITCRGSQDINTYLNWYQQKPGKAPKLLIYYTSRLHSGVPSRFSGSGSGTDYTLTISSLQPEDFATYYCQQGNLLPWTFGQGTKLEIK |
| 4 | 12.1 | 2.1 | 84.7 | 0.62 | 1.7 | 4.19e-05 | 67600 | S7AB-H8.7 (antibody, V domains shown) VH: QVQLVQSGAEVKKPGASVKVSCKASGYAFTMAWMNWVRQAPGQGLEWIGRIFPGYGHTNYAQKFQGRATLTEDTSTSTAYMELSSLRSEDTAVYYCARDYSDYYFDYWGQGTLVTVSS VL: DIQMTQSPSSLSASVGDRVTITCRGSQDINTYLNWYQQKPGKAPKLLIYYTSRLHSGVPSRFSGSGSGTDYTLTISSLQPEDFATYYCQQGNTKPWTFGQGTKLEIK |
| 2.9 | 8.8 | 3.1 | 116 | 0.527 | 2 | 4.82e-05 | 91400 | S7AB-H8.9 (antibody, V domains shown) VH: QVQLVQSGAEVKKPGASVKVSCKASGYAFTAAWMNWVRQAPGQGLEWIGRIFPGLGHTNYAQKFQGRATLTEDTSTSTAYMELSSLRSEDTAVYYCARDYSDYYFDYWGQGTLVTVSS VL: DIQMTQSPSSLSASVGDRVTITCRGSQDINTYLNWYQQKPGKAPKLLIYYTSRLHSGVPSRFSGSGSGTDYTLTISSLQPEDFATYYCQQGNTKPWTFGQGTKLEIK |
| 3.8 | 11.5 | 20.1 | 89.2 | 0.294 | 3.6 | 6.05e-05 | 206000 | S7AB-H8.3 (antibody, V domains shown) VH: QVQLVQSGAEVKKPGASVKVSCKASGYAFTGYWMNWVRQAPGQGLEWIGRIFPGLGHTNYAQKFQGRATLTEDTSTSTAYMELSSLRSEDTAVYYCARDYSDYYFDYWGQGTLVTVSS VL: DIQMTQSPSSLSASVGDRVTITCRGSQDINTYLNWYQQKPGKAPKLLIYYTSRLHSGVPSRFSGSGSGTDYTLTISSLQPEDFATYYCQQGNLLPWTFGQGTKLEIK |
| 3.9 | 11.8 | 3.3 | 87 | 0.227 | 4.6 | 3.23e-05 | 142000 | S7AB-H8.2 (antibody, V domains shown) VH: QVQLVQSGAEVKKPGASVKVSCKASGYAFTMAWMNWVRQAPGQGLEWIGRIFPGYGHTNYAQKFQGRATLTEDTSTSTAYMELSSLRSEDTAVYYCARDYSDYYFDYWGQGTLVTVSS VL: DIQMTQSPSSLSASVGDRVTITCRGSQDINTYLNWYQQKPGKAPKLLIYYTSRLHSGVPSRFSGSGSGTDYTLTISSLQPEDFATYYCQQGNLLPWTFGQGTKLEIK |
| 3.9 | 11.8 | 9.5 | 87 | 0.351 | 3 | 4.08e-05 | 116000 | S7AB-H8.5 (antibody, V domains shown) VH: QVQLVQSGAEVKKPGASVKVSCKASGYAFTEAWMNWVRQAPGQGLEWIGRIFPGYGHTNYAQKFQGRATLTEDTSTSTAYMELSSLRSEDTAVYYCARDYSDYYFDYWGQGTLVTVSS VL: DIQMTQSPSSLSASVGDRVTITCRGSQDINTYLNWYQQKPGKAPKLLIYYTSRLHSGVPSRFSGSGSGTDYTLTISSLQPEDFATYYCQQGNLLPWTFGQGTKLEIK |
| 3.8 | 11.4 | 19.2 | 89.8 | 0.371 | 2.8 | 6.33e-05 | 171000 | S7AB-H8.8 (antibody, V domains shown) VH: QVQLVQSGAEVKKPGASVKVSCKASGYAFTGYWMNWVRQAPGQGLEWIGRIFPGLGHTNYAQKFQGRATLTEDTSTSTAYMELSSLRSEDTAVYYCARDYSDYYFDYWGQGTLVTVSS VL: DIQMTQSPSSLSASVGDRVTITCRGSQDINTYLNWYQQKPGKAPKLLIYYTSRLHSGVPSRFSGSGSGTDYTLTISSLQPEDFATYYCQQGNTKPWTFGQGTKLEIK |
| 4.3 | 12.9 | 4.5 | 79.5 | 0.214 | 4.9 | 3.15e-05 | 147000 | S7AB-H8.4 (antibody, V domains shown) VH: QVQLVQSGAEVKKPGASVKVSCKASGYAFTAAWMNWVRQAPGQGLEWIGRIFPGLGHTNYAQKFQGRATLTEDTSTSTAYMELSSLRSEDTAVYYCARDYSDYYFDYWGQGTLVTVSS VL: DIQMTQSPSSLSASVGDRVTITCRGSQDINTYLNWYQQKPGKAPKLLIYYTSRLHSGVPSRFSGSGSGTDYTLTISSLQPEDFATYYCQQGNLLPWTFGQGTKLEIK |
